Measurements from patent US20250179205A1 (Hoffmann-La Roche, published 2025).
One block for each binder: values may come before it.

How the values were obtained:
[1] = molecular target: T1, mouse fibroblast activation protein (mFAP) (mouse, UniProt P97321 1-761); experiment: flow cytometry on NIH/3T3-mFAP cells (3T3_mFAP), PE-labelled anti-human IgG Fcgamma F(ab')2 secondary, MFI baseline corrected
T1 construct: expressed on transfected NIH/3T3-mFAP clone 26 cells; also called murine FAP; mouse FAP
Procedure: (§1) NIH/3T3-huFAP clone 19 and NIH/3T3-mFAP clone 26 were generated by the transfection of the mouse embryonic fibroblast NIH/3T3 cell line (ATCC CRL-1658) with the expression vector pETR4921 to express under 1.5 μg/mL Puromycin selection huFAP or mFAP, respectively.
(§2) NIH/3T3-huFAP, NIH/3T3-mFAP or NIH/3T3-wt cells were cultured with 1× Dulbecco's Modified Eagle's Medium (DMEM) (Gibco, Cat. No. 42430-025) supplemented with 10% Fetal Bovine Serum (FBS) (life technologies, Cat. No. 16140, Lot No. 1797306A). For the NIH/3T3-huFAP and NIH/3T3-mFAP cells 1.5 μg/mL Puromycin (Gibco, Cat. No. A11138-03) was added to the medium for selection of FAP-expressing cells. NIH/3T3 cells were removed from the plate by using enzyme-free Cell Dissociation Buffer (Gibco, Cat. No. 13151014). 0.3×10⁵ NIH/3T3-huFAP clone 19, NIH/3T3-mFAP clone 26 or NIH/3T3-wt were added in 200 μl of 1×DMEM 10% FBS to each well of a round-bottom 96-well plate (Greiner Bio-One, CELLSTAR®, Cat. No. 650185). Plates were centrifuged 5 minutes at 1700 rpm and supernatants were flicked off. Cells were washed once with 200 μL of 4° C. cold FACS buffer (eBioscience, Cat. No. 00-4222-26). All samples were resuspended in 50 μL/well of 4° C. cold FACS buffer containing the bispecific antigen binding molecules (primary antibody) or isotype control antibody DP47 at the indicated range of concentrations (in duplicates) and incubated for 120 minutes at 4° C. Afterwards the cells were washed three times with 200 μL 4° C. cold FACS buffer. Cells were further stained with 25 μL/well of 4° C. cold secondary antibody solution (1:50 dilution of secondary antibody) containing R-Phycoerythrin (PE) conjugated AffiniPure F(ab′)₂ Fragment Goat Anti-Human IgG, Fcγ Fragment Specific (Jackson ImmunoResearch, Cat. No. 109-116-098) and incubated for 60 minutes at 4° C. in the dark. Cells were washed with 200 μl FACS buffer and resuspended in 85 μL/well FACS-buffer containing 0.2 μg/mL DAPI (Roche, Cat. No. 10236276001) and acquired the same day using 5-laser LSR-Fortessa (BD Bioscience with DIVA software). Data analysis was performed using the FlowJo version 10 software (FlowJo LLC).

[2] = molecular target: T2, human fibroblast activation protein (huFAP) (human, UniProt Q12884 1-760); experiment: flow cytometry, NIH/3T3-huFAP clone 19 cells, PE anti-human Fc F(ab')2
T2 construct: expressed on transfected NIH/3T3-huFAP clone 19 cells; also called human FAP
Procedure: as §1, §2

[3] = molecular target: T3, His-tagged human dimeric FAP (recombinant FAP_ECD) (human, UniProt Q12884 27-760); experiment: SPR (Biacore T200), His-tagged dimeric huFAP ECD captured by anti-His, antibody as analyte, 1:1 fit (avidity)
T3 construct: also called hu FAP ectodomain + poly-lys-tag + his6-tag
Procedure: The capacity of the bispecific constructs to bind human FAP was assessed by surface plasmon resonance (SPR). All SPR experiments were performed on a BIACORE® T200 (BIACORE®) at 25° C. with HBS-EP as running buffer (0.01 M HEPES pH 7.4, 0.15 M NaCl, 3 mM EDTA, 0.005% Surfactant P20, (BIACORE®).
His-tagged human dimeric FAP (recombinant FAP_ECD) was captured on a CM5 chip (GE Healthcare) immobilized with anti-His antibody (Qiagen Cat. No. 34660) by injection of 500 nM huFAP for 60 s at a flow rate of 10 uL/min, 10 nM murine FAP for 20 s at a flow rate of 20 uL/min and 10 nM cynoFAP for 20 s at a flow rate of 20 uL/min. Immobilization levels for the anti-His antibody of up to 18000 resonance units (RU) were used. Following the capture step, the bispecific antibodies as well as control molecules were immediately passed over the chip surface at a concentration ranging from 0.78-100 nM with a flow rate of […] for 280 s and a dissociation phase of 180 s. Bulk refractive index differences were corrected for by subtracting the response obtained in a reference flow cell, where no FAP was immobilized. Avidity was determined using the Langmuir 1:1 curve fitting. For bivalent binding the same 1:1 fitting was used leading to an apparent KD value.

[4] = molecular target: T4, human CD40 (human, UniProt P25942 21-277); experiment: flow cytometry, Raji cells, Alexa488 anti-huIgG
T4 construct: on Daudi cells, Raji cells, human B cells or HEK-Blue CD40L cells; also called hu CD40; CD40 receptor
Procedure: CD40 positive cells (Raji cells) were detached from the culture bottle using Trypsin and were counted using a Casy cell counter. After pelleting at 4° C., the cells were resuspended in FACS Buffer (2.5% FCS in PBS), adjusted to 2.0E+06 cells/mL, and dispensed to 96-well PP V-bottom-plates (25 μL/well=5.0E+04Zellen/well).
The CD40 specific antibodies were adjusted to 20 μg/mL in FACS buffer, resulting in a final concentration of 10 μg/mL. […] were added to 25 μl cell suspension and incubated for 1 h at 4° C. The cells were then washed twice in FACS buffer. After washing, the cells were resuspended in 50 μL FACS-buffer containing secondary antibody (<huIgG>-Alexa488, c=10 μg/mL) and incubated 1 h at 4° C. The cells were then washed twice in FACS buffer and resuspended in 70 μl/well FACS buffer for measurement using a FACS Canto (BD, Pharmingen).

[5] = molecular target: T5, Human CD40 extracellular domain with C-terminal His-AviTag (human); experiment: SPR (Biacore), antibody captured by anti-human F(ab')2, CD40 ECD as analyte, 1:1 model
T5 construct: analyte in solution in the SPR assays; also called recombinant human CD40_ECD
Procedure: Around 12000 resonance units (RU) of the capturing system (10 μg/ml goat anti human F(ab)′₂; Order Code: 28958325; GE Healthcare Bio-Sciences AB, Sweden) were coupled on a CM5 chip (GE Healthcare BR-1005-30) at pH 5.0 by using an amine coupling kit supplied by the GE Healthcare. The sample and system buffer was PBS-T (10 mM phosphate buffered saline including 0.05% Tween20) pH 7.4. The flow cell was set to 25° C.—and the sample block set to 12° C.—and primed with running buffer twice. The antibody was captured by injecting a 50 nM solution for 30 sec at a flow of 5 μl/min. Association was measured by injection of human CD40 extra cellular domain or cynomolgus monkey CD40 extracellular domain in various concentrations in solution for 300 sec at a flow of 30 μl/min starting with 300 nM in 1:3 dilutions. The dissociation phase was monitored for up to 1200 sec and triggered by switching from the sample solution to running buffer. The surface was regenerated by 60 sec washing with a Glycine pH 2.1 solution at a flow rate of 30 μl/min. Bulk refractive index differences were corrected by subtracting the response obtained from a goat anti human F(ab′)₂ surface. Blank injections are also subtracted (=double referencing). For calculation of apparent KD and other kinetic parameters the Langmuir 1:1 model was used. The apparent Kd was calculated using the BIACORE® B4000 evaluation software (version 1.1).

T5 sequence (chain, as listed by the source limits assumed): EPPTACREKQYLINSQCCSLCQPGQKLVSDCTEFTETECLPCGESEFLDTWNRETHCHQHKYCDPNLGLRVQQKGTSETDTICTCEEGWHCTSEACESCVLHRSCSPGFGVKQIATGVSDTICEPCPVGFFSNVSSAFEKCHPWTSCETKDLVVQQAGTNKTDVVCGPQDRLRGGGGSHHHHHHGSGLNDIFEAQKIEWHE
T1 sequence (P97321 whole entry): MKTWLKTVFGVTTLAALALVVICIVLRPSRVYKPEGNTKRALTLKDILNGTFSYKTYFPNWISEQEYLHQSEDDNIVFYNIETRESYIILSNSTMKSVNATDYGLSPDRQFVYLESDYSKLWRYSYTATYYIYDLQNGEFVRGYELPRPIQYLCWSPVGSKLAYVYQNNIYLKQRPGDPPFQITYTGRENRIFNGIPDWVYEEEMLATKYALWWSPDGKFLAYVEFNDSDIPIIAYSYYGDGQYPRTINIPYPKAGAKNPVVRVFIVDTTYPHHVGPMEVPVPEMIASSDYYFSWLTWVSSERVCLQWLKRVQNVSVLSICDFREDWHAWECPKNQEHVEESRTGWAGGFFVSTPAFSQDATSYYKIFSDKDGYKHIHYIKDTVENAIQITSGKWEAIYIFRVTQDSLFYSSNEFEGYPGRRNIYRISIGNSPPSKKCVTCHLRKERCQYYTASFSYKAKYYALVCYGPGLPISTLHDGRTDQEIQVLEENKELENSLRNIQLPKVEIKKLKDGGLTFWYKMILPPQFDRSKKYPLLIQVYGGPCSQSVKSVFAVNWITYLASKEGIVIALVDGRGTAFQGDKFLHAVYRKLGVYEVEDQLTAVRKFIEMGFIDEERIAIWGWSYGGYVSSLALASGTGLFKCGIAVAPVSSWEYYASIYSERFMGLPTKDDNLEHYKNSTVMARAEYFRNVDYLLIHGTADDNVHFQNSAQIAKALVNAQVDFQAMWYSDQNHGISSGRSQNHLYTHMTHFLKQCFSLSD
T4 sequence (P25942 21-277 limits assumed): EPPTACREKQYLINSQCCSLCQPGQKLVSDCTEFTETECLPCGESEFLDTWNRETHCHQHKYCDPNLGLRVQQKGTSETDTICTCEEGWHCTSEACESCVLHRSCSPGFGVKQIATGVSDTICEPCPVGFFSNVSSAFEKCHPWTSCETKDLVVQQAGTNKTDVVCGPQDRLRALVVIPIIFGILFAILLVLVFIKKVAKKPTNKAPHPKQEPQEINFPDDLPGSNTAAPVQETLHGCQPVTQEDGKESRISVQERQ

- EC50 (read off the curve) [1]: ~4 nM
- EC50 [2]: 3.65 nM
B1: P1AA9663 CD40 × FAP (28H1) (2 + 2) (bispecific antibody, human IgG1, kappa, L234A L235A)
heavy: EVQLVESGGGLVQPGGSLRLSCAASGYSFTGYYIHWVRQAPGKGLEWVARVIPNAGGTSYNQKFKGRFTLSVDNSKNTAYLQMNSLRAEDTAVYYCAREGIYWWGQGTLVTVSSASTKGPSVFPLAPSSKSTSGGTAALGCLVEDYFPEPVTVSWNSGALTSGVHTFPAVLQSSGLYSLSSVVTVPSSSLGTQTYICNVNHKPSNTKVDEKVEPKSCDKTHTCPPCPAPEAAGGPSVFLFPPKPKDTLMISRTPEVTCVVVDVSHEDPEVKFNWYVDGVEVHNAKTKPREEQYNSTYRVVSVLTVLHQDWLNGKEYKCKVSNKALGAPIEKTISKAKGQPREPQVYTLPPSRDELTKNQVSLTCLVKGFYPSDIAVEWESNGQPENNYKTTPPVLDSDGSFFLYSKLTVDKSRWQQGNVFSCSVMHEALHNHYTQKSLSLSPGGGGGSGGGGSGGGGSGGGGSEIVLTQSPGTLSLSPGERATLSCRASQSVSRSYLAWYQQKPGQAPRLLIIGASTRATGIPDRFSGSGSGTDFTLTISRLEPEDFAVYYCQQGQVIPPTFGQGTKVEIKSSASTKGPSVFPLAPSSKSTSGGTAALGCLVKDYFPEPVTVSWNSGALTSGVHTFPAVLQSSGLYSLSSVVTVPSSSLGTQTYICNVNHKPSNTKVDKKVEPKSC
light 1: DIQMTQSPSSLSASVGDRVTITCRSSQSLVHSNGNTFLHWYQQKPGKAPKLLIYTVSNRFSGVPSRFSGSGSGTDFTLTISSLQPEDFATYFCSQTTHVPWTFGQGTKVEIKRTVAAPSVFIFPPSDRKLKSGTASVVCLLNNFYPREAKVQWKVDNALQSGNSQESVTEQDSKDSTYSLSSTLTLSKADYEKHKVYACEVTHQGLSSPVTKSFNRGEC
light 2: EVQLLESGGGLVQPGGSLRLSCAASGFTFSSHAMSWVRQAPGKGLEWVSAIWASGEQYYADSVKGRFTISRDNSKNTLYLQMNSLRAEDTAVYYCAKGWLGNFDYWGQGTLVTVSSASVAAPSVFIFPPSDEQLKSGTASVVCLLNNFYPREAKVQWKVDNALQSGNSQESVTEQDSKDSTYSLSSTLTLSKADYEKHKVYACEVTHQGLSSPVTKSFNRGEC
notes: bivalent for CD40 and for FAP; also called CD40 × FAP 2 + 2; huCD40-28H1

- EC50 (read off the curve) [1]: ~1 nM
- Kd [3]: 2.2 nM
- koff [3]: 0.00145 s⁻¹
- kon [3]: 663000 M⁻¹ s⁻¹
- EC50 [2]: 1.15 nM
B2: P1AE0192 CD40 × FAP (28H1) (1 + 1) Crossmab (bispecific antibody, human IgG1, kappa, L234A L235A)
heavy 1: not shown
heavy 2: EVQLVESGGGLVQPGGSLRLSCAASGYSFTGYYIHWVRQAPGKGLEWVARVIPNAGGTSYNQKFKGRFTLSVDNSKNTAYLQMNSLRAEDTAVYYCAREGIYWWGQGTLVTVSSASTKGPSVFPLAPSSKSTSGGTAALGCLVEDYFPEPVTVSWNSGALTSGVHTFPAVLQSSGLYSLSSVVTVPSSSLGTQTYICNVNHKPSNTKVDEKVEPKSCDKTHTCPPCPAPEAAGGPSVFLFPPKPKDTLMISRTPEVTCVVVDVSHEDPEVKFNWYVDGVEVHNAKTKPREEQYNSTYRVVSVLTVLHQDWLNGKEYKCKVSNKALGAPIEKTISKAKGQPREPQVCTLPPSRDELTKNQVSLSCAVKGFYPSDIAVEWESNGQPENNYKTTPPVLDSDGSFFLVSKLTVDKSRWQQGNVFSCSVMHEALHNRFTQKSLSLSPGK
light 1: B1 light 1
light 2: B1 light 2
notes: monovalent for CD40 and for FAP; also called CD40 × FAP 1 + 1; 1+1 format

- EC50 [4]: 0.09 mg/L
- Kd [5]: 8.7 nM
- koff [5]: 0.0219 s⁻¹
- kon [5]: 2.53e+06 M⁻¹ s⁻¹
B3: P1AE0816 CD40 IgG1_LALAPG antibody (control) (antibody, V domains shown)
VH: QVQLVQSGAEVKKPGASVKVSCKASGYSFTGYYIHWVRQAPGQSLEWMGRVIPNNGGTSYNQKFQGRVTISVDKSISTAYMELSSLRSEDTAVYYCAREGIYWWGHGTTVTVSS
VL: DVVVTQSPLSLPVTPGEPASISCRSSQSLVHSNGNTFLHWYLQKPGQSPQLLIYTVSNRFSGVPDRFSGSGSGTDFTLKISRVEAEDVGVYFCSQTTHVPWTFGGGTKLEIKR
notes: huIgG1 LALA PG; control for acceptor framework 1
